Data as given in the supplement of paper PMC11246515.
± gives the standard deviation of the averaged measurements.

Test: total protein half-life in vivo (active degradation + dilution); higher = more stable protein
[1] = E. coli NCM3722 delta-clpP delta-lon delta-hslV, growth: N-lim chemostat, doubling time 6 h
[2] = wild type E. coli NCM3722, growth: C-lim chemostat, doubling time 12 h
[3] = wild type E. coli NCM3722, growth: P-lim chemostat, doubling time 6 h
[4] = wild type E. coli NCM3722, growth: P-lim chemostat, doubling time 12 h
[5] = E. coli NCM3722 delta-clpP, growth: N-lim chemostat, doubling time 6 h
[6] = E. coli NCM3722 delta-hslV, growth: N-lim chemostat, doubling time 6 h
[7] = E. coli NCM3722 delta-smpB, growth: N-lim chemostat, doubling time 6 h
[8] = wild type E. coli NCM3722, growth: C-lim chemostat, doubling time 3 h
[9] = wild type E. coli NCM3722, growth: C-lim chemostat, doubling time 6 h
[10] = wild type E. coli NCM3722, growth: N-lim chemostat, doubling time 6 h
[11] = wild type E. coli NCM3722, growth: N-lim chemostat, doubling time 12 h
[12] = E. coli NCM3722 delta-lon, growth: N-lim chemostat, doubling time 6 h

| Sequence | total protein half-life in vivo [1] | total protein half-life in vivo [2] | total protein half-life in vivo [3] | total protein half-life in vivo [4] | total protein half-life in vivo [5] | total protein half-life in vivo [6] | total protein half-life in vivo [7] | total protein half-life in vivo [8] | total protein half-life in vivo [9] | total protein half-life in vivo [10] | total protein half-life in vivo [11] | total protein half-life in vivo [12] |
| --- | --- | --- | --- | --- | --- | --- | --- | --- | --- | --- | --- | --- |
| MAQITTTDANEFSSSAEFIPMRGFSNCHLQTMLPRLFRRQVKFTPYWQRLELPDGDFVDLAWSENPAQAQHKPRLVVFHGLEGSLNSPYAHGLVEAAQKRGWLGVVMHFRGCSGEPNRMHRIYHSGETEDASWFLRWLQREFGHAPTAAVGYSLGGNMLACLLAKEGNDLPVDAAVIVSAPFMLEACSYHMEKGFSRVYQRYLLNLLKANAARKLAAYPGTLPINLAQLKSVRRIREFDDLITARIHGYADAIDYYRQCSAMPMLNRIAKPTLIIHAKDDPFMDHQVIPKPESLPPQVEYQLTEHGGHVGFIGGTLLHPQMWLESRIPDWLTTYLEAKSC | 3.69 h | 3.84 h | 2.34 h | 4.3 h | – | – | – | – | – | – | – | – |
| MIPVERRQIILEMVAEKGIVSIAELTDRMNVSHMTIRRDLQKLEQQGAVVLVSGGVQSPGRVAHEPSHQVKTALAMTQKAAIGKLAASLVQPGSCIYLDAGTTTLAIAQHLIHMESLTVVTNDFVIADYLLDNSNCTIIHTGGAVCRENRSCVGEAAATMLRSLMIDQAFISASSWSVRGISTPAEDKVTVKRAIASASRQRVLVCDATKYGQVATWLALPLSEFDQIITDDGLPESASRALVKQDLSLLVAKNE | 5.5397 ± 0.0019 h | 8.85 ± 0.59 h | 4.69 ± 0.52 h | 9.046 ± 0.035 h | 4.93 ± 0.35 h | 4.72 ± 0.089 h | 4.76 ± 0.23 h | 2.62 ± 0.12 h | 5.33 ± 0.07 h | 4.82 ± 0.13 h | 8.78 ± 0.59 h | – |
| MNATAAQTKSLEWLNRLRANPKIPLIVAGSAAVAVMVALILWAKAPDYRTLFSNLSDQDGGAIVSQLTQMNIPYRFSEASGAIEVPADKVHELRLRLAQQGLPKGGAVGFELLDQEKFGISQFSEQVNYQRALEGELSRTIETIGPVKGARVHLAMPKPSLFVREQKSPSASVTVNLLPGRALDEGQISAIVHLVSSAVAGLPPGNVTLVDQGGHLLTQSNTSGRDLNDAQLKYASDVEGRIQRRIEAILSPIVGNGNIHAQVTAQLDFASKEQTEEQYRPNGDESHAALRSRQLNESEQSGSGYPGGVPGALSNQPAPANNAPISTPPANQNNRQQQASTTSNSGPRSTQRNETSNYEVDRTIRHTKMNVGDVQRLSVAVVVNYKTLPDGKPLPLSNEQMKQIEDLTREAMGFSEKRGDSLNVVNSPFNSSDESGGELPFWQQQAFIDQLLAAGRWLLVLLVAWLLWRKAVRPQLTRRAEAMKAVQQQAQAREEVEDAVEVRLSKDEQLQQRRANQRLGAEVMSQRIREMSDNDPRVVALVIRQWINNDHE | 6.55 h | 6.98 ± 0.67 h | – | – | 6.44 h | – | – | 2.6 ± 0.24 h | 4.73 ± 0.44 h | – | – | – |
| MKRAFIMVLDSFGIGATEDAERFGDVGADTLGHIAEACAKGEADNGRKGPLNLPNLTRLGLAKAHEGSTGFIPAGMDGNAEVIGAYAWAHEMSSGKDTPSGHWEIAGVPVLFEWGYFSDHENSFPQELLDKLVERANLPGYLGNCHSSGTVILDQLGEEHMKTGKPIFYTSADSVFQIACHEETFGLDKLYELCEIAREELTNGGYNIGRVIARPFIGDKAGNFQRTGNRHDLAVEPPAPTVLQKLVDEKHGQVVSVGKIADIYANCGITKKVKATGLDALFDATIKEMKEAGDNTIVFTNFVDFDSSWGHRRDVAGYAAGLELFDRRLPELMSLLRDDDILILTADHGCDPTWTGTDHTREHIPVLVYGPKVKPGSLGHRETFADIGQTLAKYFGTSDMEYGKAMF [P0A6K6] | 4.63 ± 0.33 h | 9 ± 0.31 h | 3.91 ± 0.25 h | 7.26 ± 0.64 h | 4.5 ± 0.27 h | 4.39 ± 0.2 h | 3.41 ± 0.21 h | 2.41 ± 0.5 h | 4.68 ± 0.54 h | 4 ± 0.39 h | 6.61 ± 0.31 h | 4.1 ± 0.049 h |
| MIYLRKANERGHANHGWLDSWHTFSFANYYDPNFMGFSALRVINDDVIEAGQGFGTHPHKDMEILTYVLEGTVEHQDSMGNKEQVPAGEFQIMSAGTGIRHSEYNPSSTERLHLYQIWIMPEENGITPRYEQRRFDAVQGKQLVLSPDARDGSLKVHQDMELYRWALLKDEQSVHQIAAERRVWIQVVKGNVTINGVKASTSDGLAIWDEQAISIHADSDSEVLLFDLPPV | – | 8.6 ± 2.5 h | 5.54 ± 0.17 h | 11.6 ± 0.069 h | 4.3 ± 0.072 h | 4.52 ± 0.68 h | 4.36 ± 0.26 h | 2.84 ± 0.096 h | 5.31 ± 0.29 h | 4.51 ± 0.2 h | 7.3 ± 0.36 h | 4.67 ± 0.054 h |
| MFALCDVNAFYASCETVFRPDLWGKPVVVLSNNDGCVIARNAEAKALGVKMGDPWFKQKDLFRRCGVVCFSSNYELYADMSNRVMSTLEELSPRVEIYSIDEAFCDLTGVRNCRDLTDFGREIRATVLQRTHLTVGVGIAQTKTLAKLANHAAKKWQRQTGGVVDLSNLERQRKLMSALPVDDVWGIGRRISKKLDAMGIKTVLDLADTDIRFIRKHFNVVLERTVRELRGEPCLQLEEFAPTKQEIICSRSFGERITDYPSMRQAICSYAARAAEKLRSEHQYCRFISTFIKTSPFALNEPYYGNSASVKLLTPTQDSRDIINAATRSLDAIWQAGHRYQKAGVMLGDFFSQGVAQLNLFDDNAPRPGSEQLMTVMDTLNAKEGRGTLYFAGQGIQQQWQMKRAMLSPRYTTRSSDLLRVK | 5.93 h | – | – | – | – | – | – | – | – | – | – | – |
| MDLRDLKTFLHLAESRHFGRSARAMHVSPSTLSRQIQRLEEDLGQPLFVRDNRTVTLTEAGEELRVFAQQTLLQYQQLRHTIDQQGPSLSGELHIFCSVTAAYSHLPPILDRFRAEHPSVEIKLTTGDAADAMEKVVTGEADLAIAGKPETLPGAVAFSMLENLAVVLIAPALPCPVRNQVSVEKPDWSTVPFIMADQGPVRRRIELWFRRNKISNPMIYATVGGHEAMVSMVALGCGVALLPEVVLENSPEPVRNRVMILERSDEKTPFELGVCAQKKRLHEPLIEAFWKILPNHK | 6.95 ± 1.4 h | 11.4 ± 3.2 h | 5.48 ± 0.1 h | 11 ± 0.99 h | 6.14 ± 0.2 h | 5.87 ± 0.32 h | 6.35 ± 1.1 h | 2.78 ± 0.13 h | 5.47 ± 0.66 h | 5.9 ± 0.012 h | 10.9 ± 1.1 h | 6.22 ± 0.23 h |
| MKRNTKIALVMMALSAMAMGSTSAFAHGGHGMWQQNAAPLTSEQQTAWQKIHNDFYAQSSALQQQLVTKRYEYNALLAANPPDSSKINAVAKEMENLRQSLDELRVKRDIAMAEAGIPRGAGMGMGYGGCGGGGHMGMGHW [P0AAA9] | – | – | – | – | – | – | – | – | – | – | 13 h | – |
| MNFEGKIALVTGASRGIGRAIAETLAARGAKVIGTATSENGAQAISDYLGANGKGLMLNVTDPASIESVLEKIRAEFGEVDILVNNAGITRDNLLMRMKDEEWNDIIETNLSSVFRLSKAVMRAMMKKRHGRIITIGSVVGTMGNGGQANYAAAKAGLIGFSKSLAREVASRGITVNVVAPGFIETDMTRALSDDQRAGILAQVPAGRLGGAQEIANAVAFLASDEAAYITGETLHVNGGMYMV [P0AEK2] | 5.03 ± 0.11 h | 12.8 ± 3.6 h | 6.06 ± 0.38 h | 11.3 ± 0.73 h | 4.85 ± 0.11 h | 4.8 ± 0.2 h | 4.814 ± 0.012 h | 2.98 ± 0.11 h | 5.91 ± 0.17 h | 4.81 ± 0.28 h | 8.546 ± 0.024 h | 5.27 ± 0.39 h |
